Assay [1] concerns the target VRC01-resistant viruses.
For assay [2], the target named is 6631.V3.C10 (HIV-1).
Assay [3] addresses VRC01-resistant viruses. The source holds these as a separate data set.
Assay [4] concerns the target gp120 of X2088 (HIV-1 strain X2088.c9).
Assay [5] concerns the target VRC01-resistant viruses. The experiment in a line: cell-based or functional assay.
Assay [6] addresses VRC01-resistant viruses. This is another data set of the same source.
Assay [7] addresses gp120 of X2088 (HIV-1 strain X2088.c9). The source holds these as a separate data set.
In assay [8] the target is 6631.V3.C10 (HIV-1). This is another data set of the same source.
Assay [9] concerns the target T250-4 (HIV-1).
For assay [10], the target named is VRC01-resistant viruses. The source holds these as a separate data set.
The target of assay [11] is gp120 of X2088 (HIV-1 strain X2088.c9). The source holds these as a separate data set.
In assay [12] the target is T250-4 (HIV-1). This is another data set of the same source.
For assay [13], the target named is 6631.V3.C10 (HIV-1). This is another data set of the same source.
The target of assay [14] is T250-4 (HIV-1). This is another data set of the same source.

Substitutions are numbered along the chain they refer to. Like-named read-outs stand apart in the source and are kept apart here. Some results are limits rather than exact numbers.

B1: VRC01 (antibody, V domains shown)
VH: QVQLVQSGGQMKKPGESMRISCRASGYEFIDCTLNWIRLAPGKRPEWMGWLKPRGGAVNYARPLQGRVTMTRDVYSDTAFLELRSLTVDDTAVYFCTRGKNCDYNWDFEHWGRGTPVIVSS
VL: EIVLTQSPGTLSLSPGETAIISCRTSQYGSLAWYQQRPGQAPRLVIYSGSTRAAGIPDRFSGSRWGPDYNLTISNLESGDFGVYYCQQYEFFGQGTKVQVDIKR
On to B1, for which, in the assay with VRC01-resistant viruses [1], the neutralisation IC50 was > 50 µg/mL and the neutralisation median IC50 is > 50 µg/mL.

B2: N6 Y54GHC (antibody, V domains shown)
VH: RAHLVQSGTAMKKPGASVRVSCQTSGYTFTAHILFWFRQAPGRGLEWVGWIKPQGGAVNFGGGFRDRVTLTRDVYREIAYMDIRGLKPDDTAVYYCARDRSYGDSSWALDAWGQGTTVVVSA
VL: YIHVTQSPSSLSVSIGDRVTINCQTSQGVGSDLHWYQHKPGRAPKLLIHHTSSVEDGVPSRFSGSGFHTSFNLTISDLQADDIATYYCQVLQFFGRGSRLHIK
For the molecule B2, the results for the neutralisation IC50 (in the assay with 6631.V3.C10 (HIV-1) [2]; in assay [4]) were 0.396 µg/mL and 0.728 µg/mL, respectively. The neutralisation median IC50 in the assay with VRC01-resistant viruses [3] is 0.562 µg/mL. For the same molecule, the fold decrease in neutralization (IC50 of antibody mutant/IC50 of antibody WT) in the assay with VRC01-resistant viruses [5] turned out to be 32 fold.

B3: N6 GGG60-62ARPHC (antibody, V domains shown)
VH: B2 VH with G55Y, G61A, G62R, G63P
VL: B2 VL
For B3, the neutralisation median IC50 in the assay with VRC01-resistant viruses [3] amounted to 0.248 µg/mL. In addition, the neutralisation IC50 in assay [4] amounted to 0.15 µg/mL. The fold decrease in neutralization (IC50 of antibody mutant/IC50 of antibody WT) with VRC01-resistant viruses [5] is 14 fold.

B4: N6 N17FRH3 (antibody, V domains shown)
VH: B2 VH with G55Y, V74I, E77D, I78T, R84S, K87R, P88F
VL: B2 VL
In the assay with VRC01-resistant viruses [6], B4 showed a neutralisation fold change (IC50 mutant/IC50 WT) of 10 fold and a neutralisation median IC50 of 0.18 µg/mL. This molecule also had a neutralisation IC50 in [7] of 0.106 µg/mL. For the same molecule, the fold decrease in potency (IC50 of antibody mutant/IC50 of antibody WT) with VRC01-resistant viruses [5] came to 7 fold.

B5: VRC27 heavy chain with N6 light chain (antibody, V domains shown)
VH: QRLVQSGPQVRKPGSSVRISCETSGYTFNAYILHWFRQAPGRSFEWMGWIKPKFGAVNYAHSFQGRITLTRDIYRETAFLDLTGLRFDDTAVYYCARDRLYDGSSWRLDPWGQGTRVVVSS
VL: B2 VL
Turning to B5, the neutralisation IC50 was > 50 µg/mL with 6631.V3.C10 (HIV-1) [8], 23.1 µg/mL in the assay with T250-4 (HIV-1) [9] and > 50 µg/mL in assay [11]. The neutralisation fold change (IC50 original/IC50 combination) with VRC01-resistant viruses [10] stood at 1 fold. The neutralisation median IC50 with VRC01-resistant viruses [10] was > 50 µg/mL.

B6: N6 VRC07CDRH3 (antibody, V domains shown)
VH: RAHLVQSGTAMKKPGASVRVSCQTSGYTFTAHILFWFRQAPGRGLEWVGWIKPQYGAVNFGGGFRDRVTLTRDVYREIAYMDIRGLKPDDTAVYYCARGKYCTARDYYNWALDAWGQGTTVVVSA
VL: B2 VL
As for B6, the neutralisation IC50 with 6631.V3.C10 (HIV-1) [2] and with T250-4 (HIV-1) [12] was > 50 µg/mL in each case. For the same molecule, the neutralisation median IC50 in the assay with VRC01-resistant viruses [3] was 48.2 µg/mL.

B7: N6 VRC08CDRH3 (antibody, V domains shown)
VH: RAHLVQSGTAMKKPGASVRVSCQTSGYTFTAHILFWFRQAPGRGLEWVGWIKPQYGAVNFGGGFRDRVTLTRDVYREIAYMDIRGLKPDDTAVYYCARGRSCCGGRRHCNGADCFNWALDAWGQGTTVVVSA
VL: B2 VL
Turning to B7, the neutralisation IC50 with T250-4 (HIV-1) [12] is > 50 µg/mL; in assay [4] it was 1.4 µg/mL. Also, in the assay with VRC01-resistant viruses [3], the neutralisation median IC50 was > 50 µg/mL.

B8: N6 VRC27CDRH2 (antibody, V domains shown)
VH: B2 VH with Q54K, G55F, F60Y, G61A, G62H, G63S, R65Q, D66G
VL: B2 VL
As for B8, the neutralisation IC50 with 6631.V3.C10 (HIV-1) [13] worked out at 1.17 µg/mL; with T250-4 (HIV-1) [14], 1.57 µg/mL. In the assay with VRC01-resistant viruses [6], this molecule came in with a neutralisation median IC50 of 1.37 µg/mL. The same molecule displayed a fold decrease in neutralization (IC50 of antibody mutant/IC50 of antibody WT) in the assay with VRC01-resistant viruses [5] of 78 fold.

B9: N6 N17FRH1 (antibody, V domains shown)
VH: B2 VH with M11V, K13R, Q23E, G55Y
VL: B2 VL
Take B9: in the assay with VRC01-resistant viruses [6], the neutralisation fold change (IC50 mutant/IC50 WT) is 6 fold and the neutralisation median IC50 turned out to be 0.111 µg/mL. In the assay with VRC01-resistant viruses [5], this molecule showed a fold decrease in potency (IC50 of antibody mutant/IC50 of antibody WT) of 5 fold.

B10: N6 VRC27FRH3 (antibody, V domains shown)
VH: B2 VH with G55Y, V68I, V74I, I78T, Y80F, M81L, I83L, R84T, K87R, P88F
VL: B2 VL
Regarding B10, the neutralisation IC50 with 6631.V3.C10 (HIV-1) [13] turned out to be 0.54 µg/mL; in [7] it was 0.509 µg/mL. The neutralisation median IC50 with VRC01-resistant viruses [6] was 0.525 µg/mL.

B11: N6 VRC27FRH1 (antibody, V domains shown)
VH: SQRLVQSGPQVRKPGSSVRISCETSGYTFNAHILFWFRQAPGRGLEWVGWIKPQYGAVNFGGGFRDRVTLTRDVYREIAYMDIRGLKPDDTAVYYCARDRSYGDSSWALDAWGQGTTVVVSA
VL: B2 VL
B11: the neutralisation IC50 with 6631.V3.C10 (HIV-1) [13] came out at 0.561 µg/mL; in assay [7] it was 0.184 µg/mL. In addition, the neutralisation median IC50 in the assay with VRC01-resistant viruses [6] came to 0.373 µg/mL.

B12: N6 VRC27CDRH3 (antibody, V domains shown)
VH: B2 VH with G55Y, S101L, G103D, D104G, A108R, A111P
VL: B2 VL
Molecule B12 came in with a neutralisation IC50 with 6631.V3.C10 (HIV-1) [13] of 0.268 µg/mL. Also, the neutralisation median IC50 in the assay with VRC01-resistant viruses [6] worked out at 0.167 µg/mL. The same molecule yielded a fold decrease in neutralization (IC50 of antibody mutant/IC50 of antibody WT) with VRC01-resistant viruses [5] of 10 fold.

B13: N6 VRC27FRH2 (antibody, V domains shown)
VH: B2 VH with G44S, L45F, V48M, G55Y
VL: B2 VL
Consider B13, for which, in the assay with VRC01-resistant viruses [6], the neutralisation median IC50 came out at 0.195 µg/mL. For the same molecule, the neutralisation IC50 in assay [7] turned out to be 0.143 µg/mL.

These data come from patent publication US20180298083A1.
